Test results as given in patent publication US20230340020A1, “PEPTIDE LIGANDS FOR BINDING TO MT1-MMP” (priority 2016, published 2023).
Starred links: 1 amine or outer side, 2 acyl side, 3 side chain; linkers in the order of their positions; H or OH if unused. Positions of bridges follow the written chain, without caps; N, C: chain ends. Non-standard residues stand in square brackets, D forms with d. Residues, ends and D or L forms follow the SMILES beside them. 1Nal = N[C@@H](Cc1cccc2ccccc12)C(=O)O; TBMB = c1c(C[*:1])cc(C[*:3])cc1C[*:2]; Tle = CC(C)(C)[C@H](N)C(=O)O; βAla = NCCC(=O)O; Sar = CNCC(=O)O

Key:
[1] = Tolerability in HT1080 tumor-bearing mice; details: mouse, in vivo; biw dosing, up to 14 days, BALB/c nude mice; read-out: tolerated dose
Description: BALB/c nude mice were inoculated subcutaneously at the right flank with HT1080 tumor cells […] in 0.2 ml of PBS for tumor development. 39 animals were randomized when the average tumor volume reached […].
The BDC compounds were formulated at 0.03 mg/ml in a vehicle buffer containing 25 mM histidine and 10% Sucrose. The formulations were administered twice weekly (biw) at 0.3, 1, 3 and 10 mg/kg. Tumor volume and body weight were measured up to 14 days from the first dosing.

MT1-MMP = experiment: Species cross-reactivity with MT1-MMP; format: binding; details: murine, dog, cynomolgus and human MT1-MMP
[2] = Plasma stability in mouse serum; format: in vitro ADME; details: 4 μM concentration
Source text: (§1) The stability appears to be slightly greater than that of the corresponding conjugates in which the peptide is linked to the scaffold by three thioether linkages.

[3] = Plasma stability in human serum; format: in vitro ADME; details: 4 μm concentration
Source text: as §1

MT1-MMP hemopexin domain = target: T1, MT1-MMP hemopexin domain (Homo sapiens, UniProt P50281); experiment: Fluorescence polarisation competition binding to MT1-MMP hemopexin domain; details: read-out: Binding Affinity Ki(h)
T1 construct: residues Cys319-Gly511 from the human gene; His6 (N); made in house; host or cells: HEK293 (transient, pEXPR-IBA42 vector)
Source text: The MT1-MMP hemopexin-like repeats (also known as the MT1-MMP hemopexin domain), residues Cys319-Gly511 from the human gene, were transiently expressed in HEK293 cells as secreted N-terminally His6-tagged soluble protein, using the pEXPR-IBA42 (IBA) expression vector. Following expression, the protein was purified by Nickel-NTA affinity chromatography followed by gel filtration, and purity was checked by SDS-PAGE. Batch to batch variability was also monitored by fluorescence thermal shift experiments in the presence/absence of a hemopexin domain binding bicycle.
Binding affinity was measured using competition assays using Fluorescence Polarisation (anisotropy). […]
Here, a pre-formed complex of PEX with the fluorescent PEX-binding tracer is titrated with free, non-fluoresceinated bicyclic peptide. […] Dissociation of the complex can be measured quantitatively, and the Kd of the competitor (titrant) to the target protein determined. The advantage of the competition method is that the affinities of non-fluoresceinated bicyclic peptides can be determined accurately and rapidly.
Subsequently, the non-fluorescent competitor bicyclic peptide (usually just the bicycle core sequence) is titrated, such that it displaces the fluorescent tracer from the target protein. The displacement of the tracer is measured and associated with a drop in fluorescence polarisation. […]

Question: With `CC[C@H](C)[C@@H]([C@@H](CC(=O)N1CCC[C@H]1[C@H](OC)[C@@H](C)C(=O)N[C@H](C)[C@@H](O)c1ccccc1)OC)N(C)C(=O)[C@@H](NC(=O)[C@H](C(C)C)N(C)C(=O)OCc1ccc(NC(=O)[C@H](CCCNC(N)=O)NC(=O)[C@@H](NC(=O)Cn2cc(CCC(=O)N[C@@H](C)C(=O)N[C@H]3CN(C)Cc4cc5cc(c4)CN(C)C[C@@H](C(N)=O)NC(=O)[C@H](C(C)(C)C)NC(=O)[C@H](CC(=O)O)NC(=O)[C@H](Cc4ccc(O)cc4)NC(=O)[C@H](Cc4ccccc4)NC(=O)[C@H](CC(=O)O)NC(=O)[C@H](CCC(=O)O)NC(=O)[C@H](CSC5)NC(=O)[C@@H](C)NC(=O)[C@H](Cc4cccc5ccccc45)NC(=O)[C@H](CCC(=O)O)NC(=O)[C@H](CC(N)=O)NC(=O)[C@@H](C)NC3=O)nn2)C(C)C)cc1)C(C)C` [BT17BDC-62] as the compound, how does the MTD [1] read?
Answer: ~5 mg/kg

Question: With `C[C@H](NC(=O)CN(C)C(=O)CN(C)C(=O)CN(C)C(=O)CN(C)C(=O)CN(C)C(=O)CN(C)C(=O)CN(C)C(=O)CN(C)C(=O)CN(C)C(=O)CN(C)C(=O)CCN)C(=O)N[C@H]1CSCc2cc3cc(c2)CSC[C@H](NC(=O)[C@@H](C)NC(=O)[C@H](Cc2cccc4ccccc24)NC(=O)[C@H](CCC(=O)O)NC(=O)[C@H](CC(N)=O)NC(=O)[C@@H](C)NC1=O)C(=O)N[C@@H](CCC(=O)O)C(=O)N[C@@H](CC(=O)O)C(=O)N[C@@H](Cc1ccccc1)C(=O)N[C@@H](Cc1ccc(O)cc1)C(=O)N[C@@H](CC(=O)O)C(=O)N[C@@H](C(C)(C)C)C(=O)N[C@H](C(N)=O)CSC3` [17-69-07-N241, H-(β-Ala)-Sar10-Ala-Cys-(D-Ala)-Asn-Glu-(1Nal)-(D-Ala)-Cys-Glu-Asp-Phe-Tyr-Asp-(tBuGly)-Cys-NH2] (H-[βAla][Sar][Sar][Sar][Sar][Sar][Sar][Sar][Sar][Sar][Sar]AC[dA]NE[1Nal][dA]CEDFYD[Tle]C-NH2; linker 13-19-26 via TBMB) as the compound, how does the “cross-reactivity with MT1-MMP of other species” value (MT1-MMP) read?
Answer: fully cross reactive

Question: With “17-69-07-N268: stabilised derivative of 17-69-07; Dap homologues have SEQ ID 17 (ACANEAACEDFYDGC; non-natural residues D-Ala, 1Nal, tBuGly, Dap; bicycle; VARIANT 2 /replace="Dap" or "N-AlkDap" or "N-HAlkDap"; MOD_RES 3 D-amino acid; MOD_RES 6 Fmoc-L-1-Naphthylalanine; MOD_RES 7 D-amino acid; VARIANT 8 /replace="Dap" or "N-AlkDap" or "N-HAlkDap"; MOD_RES 14 Fmoc-alpha-tert-butylglycine; VARIANT 15 /replace="Dap" or "N-AlkDap" or "N-HAlkDap"; MISC_FEATURE - /note="Variant residues given in the sequence have nopreference with respect to those in the a)” as the compound, how does the “cross-reactivity with MT1-MMP of other species” value (MT1-MMP) read?
Answer: fully cross reactive

Question: For `CC[C@H](C)[C@@H]([C@@H](CC(=O)N1CCC[C@H]1[C@H](OC)[C@@H](C)C(=O)N[C@H](C)[C@@H](O)c1ccccc1)OC)N(C)C(=O)[C@@H](NC(=O)[C@H](C(C)C)N(C)C(=O)OCc1ccc(NC(=O)[C@H](CCCNC(N)=O)NC(=O)[C@@H](NC(=O)Cn2cc(CCC(=O)NCCC(=O)N(C)CC(=O)N(C)CC(=O)N(C)CC(=O)N(C)CC(=O)N(C)CC(=O)N(C)CC(=O)N(C)CC(=O)N(C)CC(=O)N(C)CC(=O)N(C)CC(=O)N[C@@H](C)C(=O)N[C@H]3CNCc4cc5cc(c4)CSC[C@H](NC(=O)[C@@H](C)NC(=O)[C@H](Cc4cccc6ccccc46)NC(=O)[C@H](CCC(=O)O)NC(=O)[C@H](CC(N)=O)NC(=O)[C@@H](C)NC3=O)C(=O)N[C@@H](CCC(=O)O)C(=O)N[C@@H](CC(=O)O)C(=O)N[C@@H](Cc3ccccc3)C(=O)N[C@@H](Cc3ccc(O)cc3)C(=O)N[C@@H](CC(=O)O)C(=O)N[C@@H](C(C)(C)C)C(=O)N[C@H](C(N)=O)CNC5)nn2)C(C)C)cc1)C(C)C` [BT17BDC-53], which “T1/2 in mouse serum” value [2] is on record?
Answer: greater than 50 hours

Question: And the “T1/2 in human serum” value [3]?
Answer: greater than 50 hours

Question: Which Ki (MT1-MMP hemopexin domain) does the source give for `CC(=O)N[C@@H](C)C(=O)N[C@H]1CN(C)Cc2cc3cc(c2)CN(C)C[C@@H](C(N)=O)NC(=O)[C@H](C(C)(C)C)NC(=O)[C@H](CC(=O)O)NC(=O)[C@H](Cc2ccc(O)cc2)NC(=O)[C@H](Cc2ccccc2)NC(=O)[C@H](CC(=O)O)NC(=O)[C@H](CCC(=O)O)NC(=O)[C@H](CSC3)NC(=O)[C@@H](C)NC(=O)[C@H](Cc2cccc3ccccc23)NC(=O)[C@H](CCC(=O)O)NC(=O)[C@H](CC(N)=O)NC(=O)[C@@H](C)NC1=O` [17-69-07-N479, Ac-A(Dap(Me))(D-Ala)NE(1Nal)(D-Ala)CEDFYD(tBuGly)(Dap(Me))] here?
Answer: 15.6 nM
